Common to all, as to assay: SPR
In experiment [1] the target is T1, recombinant gp160 (HIV (IIIB or MN/LAI)).
Experiment [2] deals with T1, recombinant gp160. The source holds these as a separate data set.
For experiment [3], the target named is T1, recombinant gp160. This is another data set of the same source.

This note sets out measurements from PMC3464217 (2012).

B1: 7B2 (antibody, V domains shown)
VH: QVQLVQSGGGVFKPGGSLRLSCEASGFTFTEYYMTWVRQAPGKGLEWLAYISKNGEYSKYSPSSNGRFTISRDNAKNSVFLQLDRLSADDTAVYYCARADGLTYFSELLQYIFDLWGQGARVTVSS
VL: DIVMTQSPDSLAVSPGERATIHCKSSQTLLYSSNNRHSIAWYQQRPGQPPKLLLYWASMRLSGVPDRFSGSGSGTDFTLTINNLQAEDVAIYYCHQYSSHPPTFGHGTRVELR
In the case of B1, the koff with recombinant gp160 [1] worked out at 4.9e-05 s⁻¹. For the same molecule, the Ka with recombinant gp160 [2] was 3.4e+09 M⁻¹. Further, the Kd in the experiment with recombinant gp160 [3] worked out at 0.31 nM.

B2: HY (antibody, V domains shown)
VH: QVQLEQSGAEVKKPGASVKVSCQASGYRFSHFTVHWVRQAPGQRFEWMGWINPYNGNKEFSAKFQDRVTFTADTSANTAYMELRSLRSADTAVYYCARVGEWGWDDSPYDNYYMDVWGKGTTVIVSS
VL: EIVLTQSPGTLSLSPGERATFSCRSSHSIRSRRVAWYQHKPGQAPRLVIHGVSNRASGISDRFSGSGSGTDFTLTITRVEPEDFALYYCQVYGASSYTFGQGTKLERK
For the molecule B2, in the experiment with recombinant gp160 [1], the off-rate (koff) came out at 0.018 s⁻¹. Further, the Ka with recombinant gp160 [2] was 2.7e+06 M⁻¹. The dissociation constant Kd with recombinant gp160 [3] was 370 nM.

As a reminder, the koff is the first-order rate constant of dissociation. Usually Kd stands for the constant that tells how readily two partners part at equilibrium.
